Experimental data taken from patent US11026972B2, “Methods for generating macrophages with enhanced cancer phagocytosis” (Georgia State University Research Foundation, Inc., priority 2016, dated 2021).

Assays:
SIRPα = details: following LPS stimulation; cited from earlier work
B16 melanoma = B16 melanoma pulmonary metastases model; assay type: in vivo, mouse; details: SIRPα^−/− mice
Procedure: Mouse models of B16 melanoma: B16-F10 melanoma cells (American Type Culture Collection) were cultured in DMEM with 8% FBS. B16 melanoma pulmonary metastases were established by intravenous (i.v.) injection of B16 cells (5×10^5, >95% viability) suspended in 100 μl PBS through the tail vein. The mice were allowed to live to reach humane endpoints or sacrificed on day 15 post B16 inoculation for analyses of melanoma formation in the lungs and other organs. To test macrophage eradication of B16 in vivo, recombinant murine IL-17 (20 μg) was given a day after the B16 implantation and then again two additional administrations three and six days later (total 3 administrations). For SIRPα^−/− mice survived first B16 injection, B16 cells (5×10^5) were injected (i.v.) once again three months without further IL-17 administration. […] For serum treatment, WT mice with B16 inoculation were given serum samples (150 μl, every three days, 3×) derived from control mice or B16-eradicated SIRPα^−/− mice. In other experiments, 2×10^7 splenocytes from control mice or B16-eradicated SIRPα^−/− mice were transferred into WT mice. After 10 days, B16 cells were inoculated into the recipient mice and melanoma development was examined.

[1] = test system: CFSE-labeled CD47^+ or CD47^− RBCs in recipient mice; test: RBC adoptive transfer and in vivo clearance of CFSE-labeled RBCs; set-up: species or system mouse; details: 24 h
Description: FIGS. 2A-2E includes data related to macrophage phagocytosis in vivo assessed by adoptive transfer experiments. FIGS. 2A-C are illustrative graphs showing clearance of adoptively transferred CD47-positive (Cd47^+) or CD47-negative (Cd47^−) RBC in recipient mice. […] Error bars are ±SEM. **P<0.01, ***P<0.001 vs. WT mice clearance of Cd47^+ RBCs. […] Mice treated with DSS (1% for SIRPα^−/− mice, 2% for WT and Cd47^−/− mice) for 8 d (d8) were transfused with CFSE-RBCs followed by determination of RBC clearance after 24 h. FACS data of Cd47^+ RBCs and Cd47^− RBCs in different mice at 30 min and 24 h after transfer were selectively shown. Total RBC phagocytosis was calculated based on the rates of CFSE-RBC clearance and the fact that SIRPα^−/− mice eliminate both Cd47^− RBC and Cd47^+ RBC, whereas WT mice and Cd47^−/− mice eliminate only Cd47^− RBCs. […] Mice treated once with IL-17 (10 μg/kg, i.v.) were transfused with CFSE-labeled Cd47^+ or Cd47^− RBCs a day later. Error bars are ±SEM. **P<0.01, ***P<0.001 vs. control or the initial time point. Data presented in each panel represent at least three independent experiments with n≥4, if applicable.
Adoptive transfer and in vivo clearance: CD47-expressing (CD47^+) RBC freshly collected from WT or SIRPα^−/− mice, and CD47-null (CD47^−) RBC collected from CD47^−/− mice were labeled with carboxyfluorescein succinimidyl ester (CFSE). After washing, about 1×10^9 RBC suspended in 200 μl sterile PBS were transfused into recipient mice by intravenous (i.v.) injection. Blood samples (5 μl) were then collected 30 min after the blood transfusion and the CFSE-labeled RBC in the circulation was assessed by FACS analyses. Blood samples (5 μl each) were then collected at later time points to assess the clearance of CFSE-labeled RBC as compared to that found at 30 min. For each sample, at least 50,000 RBC were examined by FACS. […] Clearance of CFSE-labeled cells in the circulation and the spleen were analyzed by FACS analyses of blood samples and splenocytes. […]

Molecule	SIRPα expression in macrophages (SIRPα)	B16 melanoma (B16 melanoma)	clearance of transferred CD47^+ and CD47^− RBCs ([1]; SIRPα^−/− mice, 1% DSS for 8 d or directly injected with IL-17)	clearance of transferred RBCs ([1]; mutant mice treated with IL-17 multiple times and a longer period (d1 and d3))
lipopolysaccharide [LPS]	decreased	–	–	–
IL-17: recombinant murine cytokine interleukin IL-17 (also known as IL-17A), PeproTech (protein, UniProt Q62386 26-158, looked up) Interleukin-17A: AAIIPQSSACPNTEAKDFLQNVKVNLKVFNSLGAKVSSRRPSDYLNRSTSPWTLHRNEDPDRYPSVIWEAQCRHQRCVNAEGKLDHHMNSVLIQQEILVLKREPESCPFTFRVEKMLVGVGCTCVASIVRQAA	–	eliminated B16 melanoma	~50%	< 5%
